From paper PMC9325241
pKd: −log10 of the molar value.

Key:
[1] = target: recombinant EGFR (human EGFR protein) (human) (UniProt P00533); assay: SPR; settings: bispecific antibody
[2] = target: recombinant PD-L1 (human PD-L1 protein) (human) (UniProt Q9NZQ7); assay: SPR; settings: bispecific antibody
Chain of UniProt Q9NZQ7 (Q9NZQ7 19-238): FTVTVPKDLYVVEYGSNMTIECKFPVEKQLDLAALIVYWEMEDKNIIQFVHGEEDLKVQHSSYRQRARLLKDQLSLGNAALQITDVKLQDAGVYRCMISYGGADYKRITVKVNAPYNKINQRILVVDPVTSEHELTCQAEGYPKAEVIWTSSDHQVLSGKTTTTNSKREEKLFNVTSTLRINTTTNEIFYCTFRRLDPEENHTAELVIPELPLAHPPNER

Row | Substance | pKd [1] | koff [1] [s⁻¹] | pKd [2] | koff [2] [s⁻¹]
1 | anti-EGFR/PD-L1 BsAb, dual variable domain immunoglobulin (DVD-Ig) symmetric tetravalent format (from UniProt P01857) | 9.04 | 0.0007 | 12.43 | 7.56e-07
2 | anti-EGFR/PD-L1 BsAb, knob-in-hole (KIH) asymmetric bivalent format (from UniProt P01857) | 7.25 | 0.0295 | 10.97 | 2.13e-05
